Measurements reported in patent publication US20250304937A1.
Read-outs that look alike come from different tables or passages of the source.

Assays:
[1] = target: IVIg (Octagam), pool of human IgG (human); assay: cell-based or functional assay
[2] = target: IVIg (Octagam), pool of human IgG (human); assay: cell-based or functional assay; remark: listed apart in the source

## pCART124 (IdeS control with N terminal methionine and histidine tag) (enzyme)
[1]
  2nd IgG heavy chain scIgG to F(ab')2, Conc. of enzyme (ng/ml), gel: 6000 ng/mL
[2]
  1st IgG heavy chain IgG to scIgG, Conc. of enzyme (ng/ml), gel: 1900 ng/mL
  2nd IgG heavy chain scIgG to F(ab')2, Conc. of enzyme (ng/ml), gel: 7500 ng/mL
